# Patent publication US20210070843A1
# Changes are numbered by the printed parent chain.
# B1: C05 (antibody, V domains shown)
# VH: PVQLQESGGGLVQPGESLRLSCVGSGSSFGESTLSYYAVSWVRQAPGKGLEWLSIINAGGGDIDYADSVEGRFTISRDNSKETLYLQMTNLRVEDTGVYYCAKHMSMQQVVSAGWERADLVGDAFDVWGQGTMVTVSS
# VL: DIQLTQSPSSLSASVGDRVTLTCQASQDIRKFLNWYQQKPGKGPKLLIYDASNLQRGVPSRFSGGGSGTDFTLIISSLQPEDVGTYYCQQYDGLPFTFGGGTKVEIKR
# B2: P47 (antibody, V domains shown)
# VH: EVQLVESGGGLVQPGGSLRLSCAASGFTIGNSGIHWVRQAPGKGLEWVASIWPSGGSTYYADSVKGRFTISADTSKNTAYLQMNSLRAEDTAVYYCARFGHIDGDIMDYWGQGTLVTVSS
# VL: DIQMTQSPSSLSASVGDRVTITCRASQDVYYYVAWYQQKPGKAPKLLISGSSYLYSGVPSRFSGSGSGTDFTLTISSLQPEDFATYYCQQYYNWPLTFGQGTKVEIKR
# B3: S40 (antibody, V domains shown)
# VH: B2 VH with N31D, S32F, S50G, S54F, S57Y, G100V, H101N, I102W, I106Y
# VL: B2 VL with Y30G, Y31F, G50W, W94Y
# B4: P10 (antibody, V domains shown)
# VH: B2 VH with G30D, G33W, S54F, S57Y, H101N, I102V, D103F, G104D, D105W, I106Y
# VL: DIQMTQSPSSLSASVGDRVTITCRASQDVNSNVAWYQQKPGKAPKLLIYWAGYLYSGVPSRFSGSGSGTDFTLTISSLQPEDFATYYCQQSSDFPITFGQGTKVEIKR
# B5: S01 (antibody, V domains shown)
# VH: B2 VH with G30N, S32Y, S57Y, Y59S, H101L, I102G, G104Y
# VL: B2 VL with Y30W, Y31G, G50F, S51P, Y53S, N93D, W94G, L96V
# B6: S07 (antibody, V domains shown)
# VH: B2 VH with G30N, N31S, W52G, G55W, H101I, I102G, G104I, I106V
# VL: B2 VL with Y30W, Y31G, G50Y, S51A, Y53F, Y92F, L96V
# B7: S51 (antibody, V domains shown)
# VH: EVQLVESGGGLVQPGGSLRLSCAASGFTIDDWGIHWVRQAPGKGLEWVAWIWPYGGFTSYADSVKGRFTISADTSKNTAYLQMNSLRAEDTAVYYCARFGFVDWNLMDYWGQGTLVTVSS
# VL: B2 VL with Y30W, Y31G, G50Y, S51T, S52T, W94S, L96V
# B8: P28 (antibody, V domains shown)
# VH: EVQLVESGGGLVQPGGSLRLSCAASGFTINNSGIHWVRQAPGKGLEWVASIWPSGGYTYYADSVKGRFTISADTSKNTAYLQMNSLRAEDTAVYYCARFNSSYSSGLMDYWGQGTLVTVSS
# VL: B2 VL with Y30W, Y32S, S49Y, G50F, S51A, S52T, Y53G, Y92F, L96V
# B9: P48 (antibody, V domains shown)
# VH: EVQLVESGGGLVQPGGSLRLSCAASGFTINSWGIHWVRQAPGKGLEWVAGIGPSWGYTSYADSVKGRFTISADTSKNTAYLQMNSLRAEDTAVYYCARFGDGDFDLMDYWGQGTLVTVSS
# VL: B2 VL with Y30W, Y31S, G50Y, S51T, Y92F, L96I
# B10: P14 (antibody, V domains shown)
# VH: B2 VH with N31D, S32F, S50G, S54F, S57Y, G100V, H101N, I102W, I106Y
# VL: B2 VL with Y30G, Y31F, G50W, W94Y
# B11: P38 (antibody, V domains shown)
# VH: EVQLVESGGGLVQPGGSLRLSCAASGFTINDGGIHWVRQAPGKGLEWVAFIGPYGGSTFYADSVKGRFTISADTSKNTAYLQMNSLRAEDTAVYYCAGFIGDYSSYHGVMDYWGQGTLVTVSS
# VL: B4 VL with N30W, S31G, N32Y, Y49S, A51P, Y53G, S91Y, D93S, I96L
# B12: P25 (antibody, V domains shown)
# VH: EVQLVESGGGLVQPGGSLRLSCAASGFTISNGGIHWVRQAPGKGLEWVAGIGPYGGYTYYADSVKGRFTISADTSKNTAYLQTNSLRAEDTAVYYCARFYGYSGIMDYWGQGTLVTVSS
# VL: B2 VL with Y30W, Y31G, S52R, Y53S, W94Y, L96I
# Molecular target: full-length H1 A/California/07/2009 HA expressed on 293T cells (influenza A virus A/California/07/2009 (H1N1))
# Test: flow cytometry, HA-expressing 293T
Binder,max. MFI [MFI],EC50 [µg/mL]
B1,86,–
B2,10200,0.61
B3,8630,0.46
B4,9660,0.41
B5,8430,0.384
B6,10800,1.61
B7,6290,0.754
B8,168,–
B9,7860,2.4
B10,8340,0.125
B11,988,3.16
B12,2380,0.761

# Molecular target: full-length H5 A/Vietnam/1203/2004 HA expressed on 293T cells (influenza A virus A/Vietnam/1203/2004 (H5N1))
# Test: flow cytometry, HA-expressing 293T
Binder,max. MFI [MFI],EC50 [µg/mL]
B1,547,–
B2,396,–
B3,724,2.85
B4,517,–
B5,306,–
B6,863,4.98
B7,452,–
B8,193,–
B9,474,–
B10,328,–
B11,240,–
B12,318,–

# Molecular target: cell surface-expressed H3N2 WN/05 HA trimer (influenza A virus A/Wisconsin/67/2005 (H3N2))
# Test: flow cytometry, HA-expressing 293T
Binder,EC50 [µg/mL],max. MFI [MFI]
B1,0.13,14600
B2,–,175
B3,–,109
B4,–,117
B5,–,178
B6,3.71,410
B7,–,340
B8,–,127
B9,–,258
B10,–,154
B11,–,137
B12,–,152

# Molecular target: full-length H1 A/California/07/2009 HA expressed on 293T cells (influenza A virus A/California/07/2009 (H1N1))
# Test: cell-based or functional assay
Binder,IC50 of pseudo virus neutralization H1N1 CA/09 [µg/mL],IC50 of true virus neutralization H1N1 CA/09 [µg/mL]
B1,> 100,> 500
B2,> 100,> 500
B3,> 100,436
B4,0.465,> 500
B5,> 100,> 500
B6,> 100,> 500
B7,> 100,> 500
B8,> 100,> 500
B9,> 100,> 500
B10,> 100,4390
B11,> 100,> 500
B12,> 100,> 500

# Molecular target: H7 A/Anhui/1-BALF_RG17/2013 HA on H7N9 AH/13 pseudo virus (influenza A virus A/Anhui/1-BALF_RG17/2013 (H7N9))
# Test: cell-based or functional assay
row,Binder,IC50 of pseudo virus neutralization H7N9 AH/13 [µg/mL]
1,B1,> 200
2,B2,> 200
3,B3,> 200
4,B4,> 200
5,B5,> 200
6,B6,> 200
7,B7,> 200
8,B8,> 200
9,B9,> 200
10,B10,> 200
11,B11,> 200
12,B12,> 200

# Molecular target: full-length H5 A/Vietnam/1203/2004 HA expressed on 293T cells (influenza A virus A/Vietnam/1203/2004 (H5N1))
# Test: cell-based or functional assay
row,Binder,IC50 of pseudo virus neutralization H5N1 VN/04 [µg/mL]
1,B1,> 200
2,B2,> 200
3,B3,> 200
4,B4,> 200
5,B5,> 200
6,B6,> 200
7,B7,> 200
8,B8,> 200
9,B9,> 200
10,B10,> 200
11,B11,> 200
12,B12,> 200

# Molecular target: cell surface-expressed H3N2 WN/05 HA trimer (influenza A virus A/Wisconsin/67/2005 (H3N2))
# Test: cell-based or functional assay
row,Binder,IC50 of pseudo virus neutralization H3N2 WN/05 [µg/mL]
1,B1,0.0102
2,B2,> 20
3,B3,> 20
4,B4,> 20
5,B5,> 20
6,B6,> 20
7,B7,> 20
8,B8,> 20
9,B9,> 20
10,B10,> 20
11,B11,> 20
12,B12,> 20
